# Tests used:
# [1] = biological target: Human Neutrophil Elastase (human) (UniProt P08246); test: stoichiometry of inhibition by titration of residual protease activity; 200 nM HNE or 300 nM PR3 mixed with varied Siropin, molar ratios from 0 to 10, 5 min at 37 °C, then substrate, absorbance at 405 nm for 30 min; x-intercept of linear regression; 20 mM Tris-HCl, 500 mM NaCl, pH 8.0
# [2] = biological target: Human Proteinase 3 (human) (UniProt P24158); test: as above
# [3] = biological target: Human Neutrophil Elastase (human) (UniProt P08246); test: progress curve kinetics of protease inhibition; pseudo-first-order conditions, Siropin 1 to tenfold over protease, 200 µM substrate, HNE (200 nM) or PR3 (300 nM), 37 °C, 405 nm for 20 min; k obs against Siropin concentration, slope k'app corrected for substrate competition (Km 114 µM HNE, 270 µM PR3)
# [4] = biological target: Human Proteinase 3 (human) (UniProt P24158); test: as above
# Sequence of UniProt P24158 (P24158 28-248): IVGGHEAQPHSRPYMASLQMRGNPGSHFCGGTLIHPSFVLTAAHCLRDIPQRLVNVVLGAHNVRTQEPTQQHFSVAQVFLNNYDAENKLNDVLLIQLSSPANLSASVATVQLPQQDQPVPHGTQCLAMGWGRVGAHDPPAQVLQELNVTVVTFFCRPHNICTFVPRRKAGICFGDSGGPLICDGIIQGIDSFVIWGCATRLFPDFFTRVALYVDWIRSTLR
# Sequence of UniProt P08246 (P08246 30-267): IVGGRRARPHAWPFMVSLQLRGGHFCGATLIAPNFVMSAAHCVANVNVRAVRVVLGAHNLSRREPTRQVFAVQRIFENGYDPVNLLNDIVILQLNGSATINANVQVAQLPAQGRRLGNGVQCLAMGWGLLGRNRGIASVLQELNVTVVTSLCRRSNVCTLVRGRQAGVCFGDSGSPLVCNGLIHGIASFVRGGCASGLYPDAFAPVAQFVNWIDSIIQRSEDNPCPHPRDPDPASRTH
stoichiometry of inhibition (SI) [1],stoichiometry of inhibition (SI) [2],kon [3],kon [4],Substance
1.76,1.1,84000 M⁻¹ s⁻¹,260000 M⁻¹ s⁻¹,Siropin 1 (natural protein)
1.82,1.1,77000 M⁻¹ s⁻¹,110000 M⁻¹ s⁻¹,Siropin 2 (natural protein)

# — PMC5127057
